Biological target: T1, Rae1–Nup98_(GLEBS) complex (UniProt P78406 1-368; P52948 157-213)
T1 construct: Deca-histidine tags are called non-cleavable; also called Rae1–Nup98 complex; Rae1–Nup98 heterodimer; not shown: His10, C-terminal, kept; His10, N-terminal, kept
Assay: ITC
Details: both partners purified

T1 sequence (P78406 whole entry, chain 1 of 2): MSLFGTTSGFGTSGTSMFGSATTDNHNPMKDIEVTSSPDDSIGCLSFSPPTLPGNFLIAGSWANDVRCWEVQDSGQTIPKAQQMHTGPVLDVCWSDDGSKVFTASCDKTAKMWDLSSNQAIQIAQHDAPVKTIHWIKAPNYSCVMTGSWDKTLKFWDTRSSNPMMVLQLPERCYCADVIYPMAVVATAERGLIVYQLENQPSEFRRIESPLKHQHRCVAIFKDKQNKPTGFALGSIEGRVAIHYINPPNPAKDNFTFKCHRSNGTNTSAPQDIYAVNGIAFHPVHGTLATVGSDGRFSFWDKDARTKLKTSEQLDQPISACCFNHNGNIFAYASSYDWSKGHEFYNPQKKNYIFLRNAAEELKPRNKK
T1 sequence (P52948 157-213, chain 2 of 2): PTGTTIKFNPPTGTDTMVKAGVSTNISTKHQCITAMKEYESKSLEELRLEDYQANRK

SKSLTENKYSQLDEEQPMEID (also called SARS-CoV-2 Orf6 peptide) [SARS-CoV-2 Orf6CTT (21-mer peptide, residues 41–61 of SARS-CoV-2 Orf6)]
Kd: 142 nM
stoichiometry N: 1

From publication PMC8790125, “Molecular Mechanism of SARS-CoVs Orf6 Targeting the Rae1–Nup98 Complex to Compete With mRNA Nuclear Export” (Frontiers in Molecular Biosciences, 2021)
